# Results published in a protein production outcome set (Wang et al. 2014).
# Assay: label from the status in PepcDB records
# 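Also: failed if final PepcDB status was selected cloned or expressed and not failed if soluble or beyond.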
row,Sequence,protein production
1,MKKVFDVWDVETAKRFLEIIKDEPIYYPALIALHTGMRAGEILSLKWCDVNFETRVISIVKSERKNRGLKTVNLKTKTSKRAVYMNDILYKELKNLYEITKPKPDDFVCPRLPTGNLTVNYLSRKFKKLVKKHNFPLIRFHDLRHTFATLMLSLGVNTKIVAEILGHSDIKLTADTYSHVLPTMQEEAMKEFVKLWKLEHHHHHH,not failed
2,MKKVSIIIPFKGQTEAELMLPLSSIYNQIGVDLSQLDIHLVNDGGKTIDLSKFDVLADRLEIHYHEIPNGGPGVARQYGIDNSISEYIMFIDADDVLYYVGALWPFYNASNQGHQMIRASYWEQIAGNPYTYTVHGNGDRKAAYGKWYKRSYIEMLGLRFMPDLPIYEDTYFVGLACELATDTCFLEEKVYMWLANPNSITRTVENKFNYQAHIYARENRYWFEMIRKWKPECLEHHHHHH,failed
3,MKKVSIIIPFKGQTEAELMLPLSSIYNQIGVDLSQLDIHLVNDGGKTIDLSKFDVLADRLEIHYHEIPNGGPGVARQYGIDNSISEYIMFIDADDVLYYVGALWPFYNASNQGHQMIRASYWEQIAGNPYTYTVHGNGDRKAAYGKWYKRSYIEMLGLRFMPDLPIYEDTYFVGLACELATDTCFLEEKVYMWLANPNSITRTVENKFNYQAHIYARENRYWFEMIRKWKPECLVTDFENYLTNMYLKSQKYPPVDEKAWWEEQHKLITSVSDIFSGWTQELQKQVEDKSANPQNEWHGIETDGFKEWATQSLPW,failed
4,MKKYIKPSAILLTLILSACSETKTVQQLISSGNSFVQVRDFSSAVIEFKNAVRLEPKNANARFELGNAYLEQGNFVNAEKEFSRAVELGLDFSNIAALMARVNTHLDKADEVYQLVERSDELTDDDYVEVLTYAGITALKQNRISQGQDYLTQAIVINPDAAYSRIAQAYVHYADREFSQGIVVISNLLNEKTDATEAMLIQGHLYYAQQEFEHASGAFALYLNYHPQDHKIRFFEVNSLIKAEKFEQANVITNTLLKAFKDSSLALQFKAQLEYQKKNYSAARDYAEEALQHGQDFLGAKIIAGVSSYFLGDVEQAYTKLNGIVERVPNNLLVKKILAVTKFELGYYADAAENFSSLEGLTSADLQLLKSSSASLMGIGYVDNALSLINKAEEFSPDNAQVAAQKGLMLLSQNDISGINSMKRAVELDPSLTYVQVALAIGYLNIGEENKAQKIADLYKDKIDEADVGHVLEGFIYLNNKQSANAQVSFEKALSLNPKNIASLYNLGLLHKRAAENSKAIIYFDRLIALSPEHKGALKSLVSIAVNKEYLEEVLTILVRNHQTDNLYSIIALAQVLRIDQQVAKAVTTLGGIDKSVKLTSNYFMLLGDSYLELEKYLKANAIFEQGLALEPKDYLLNIRYISTLEWLGDYTAALDQTRRLHKYYPNNINITTSLIYLEVRNKNYQEAKYLLEAIKGQKSNHHQLDAIAGEIYSYEKDYPQAIEHFSVVYEKEPTELNLLNLARTLGFDKQNKQAERLLELYLDKNPNNSKIRFLLAELYNPQDRKKRVVQYQVLSTQIPNNAIVFNNLAWNQFKLKQTAEALINIEKAYQLQPDSLAIQESYGVILIANNKLSQGINILESAILSGSTDAAAKEYLIKAKTLLNNQGKSSG,failed
5,MKKYSTIPTPCYVLESERLEKNAKILEIVRQQSGAKVLLALKGYAFWREFGILRQKLNGCCASGLYEAKLAFEEFGGRESHKEICVYSPAFKEAEMSAILPLATSIIFNSFYQYATYKDRILDKNKQLENLGLSPIKMGLRINPLYSEVTPAIYNPCSKVSRLGITPSGFEKGVKEHGLEGVSGLHFHTHCEQNADALCRTLEHVEKHFRPYLENMAWVNFGGGHHITKSDYDVNLLIQTIKDFKERYHNIEVILEPGEAIGWQCGFLIASVIDIVQNDQEIAILDASFSAHMPDCLEMPYRPSIFKVSVENDEELIEVEKGENQGAFSYFLGGPTCLAGDFMGSFSFETPLKRGDKIVFQDMLHYTIVKNNSFNGVPLPSLARLDQQGFKILKNFSYEDYKNRN,failed
6,MKLAMIGFGQAGGKIVDKFLEYDKETGSGIVRSAVAVNTAKADLLGLEHIPEENRVLIGQARVKGHGVGADNELGAEIAEEDIDEVQGAIDNIPVHEVDAFLIVAGLGGGTGSGGSPVVAKHLKRIYTEPVYGLGVLPGSDEGGIYTLNAARSFQTFVREVDNLMVFDNDAWRQTGESVEGGYDHINEEIVRRFGVLFGAGEIEAGDNVAESVVDSSEIINTLDGGGVSTVGYASEDVEVSSGGGGLLSRFKGDDSSDDSMDTANTTNRITSLVRKAALGRLTLPCEIEGAERALLVMAGPPEHLNRKGIERGRKWLEEQTGSMEVRGGDYPTNAPKVAASILLAGVHNVPRIKELQQVAIEAQDNIDDIRNQSEDNLEDLVEDDEDELDPLF,failed
7,MKLDHNFSNQAIDAFIKISALSVLVLWCFSILKPFLLLMVWGGIIATALYPIVAFFSKKTALSESKVSIILTVIGVLLLLIPLVALSTGIYTSGTELFLGYQDGSIAIPKPKERMQDWPIIGHEAYSFMSLASSNLESLLFKYSAEVKVVAAKAASLVGSLGGGFIQFIVSTIIAGVFMANAAKCERAFILITNRLTGKHGEELIKLSKITIRSVVQGVIGVAVIQATMAGLGMAVVGISASVLGLWVFLVLVFAIIQLPPILILLPIIFYVFSVDTTTAGVLFAVWCVLVSSSDAILKPVLLSRGSHIPIIVILLGALGGMAMSGIVGLFVGAVVLSLTYQMFTVWLKNEAEETQNAKDNP,failed
8,MKLEAEAVAPSNIAIVKYWGKRDRELNLPLNSSLSISLDSLWVRSRVIFDESLDKDEVIINGKRLSENEVREYAGRVLRRFRDLYGKELFARVESTTNFPSSAGLASSAAGIAALTYASNAALGLGLSNRELSKIARVGSGSACRSMFGGFVKWNRGELESGDDSFCEEIFPPDHWPDLVDIIPIFGEEKKKVSSRTGMENTATSSALMRCRLQFIEETFNEVIDAIRTKNAGKFFQLTMRHSNSMHAVILDSWPPMNYLNEKSFRVMEWVVEFGKAAYTFDAGPNPHIFVLEKDVDEVLKFLNEIGSTKTIVSRVGKGPYLI,failed
9,MKLERQKLLAKVAYLYYMEGKSQSEIANELGIYRTTISRMLAKAREEGLVRIEISDFNPEIFQLESYFKSKYHLKDIEIVSSRKDSDTSEIEKDLAHVAAAMIRKKIKENDKVGIAWGRTLSKVVEAMRPHPVSQVSFVPLAGGPSHINARYHVNTLVYEMSRRFQGSCTFINATLVQENANLAKGILTSKYFEGLMDNWEKLDVAIVGVGGKPKSNEQQWLDLLNQDDFQCLDEEAAVGEITCRFFNHSGDPVNQHLAKRTIGITLEQLQKVPNRIAVAHGNYKAAALLAVLKKGYINHLVTDFSTALNILRLDKDTFVDTIYQKS,not failed
10,MKLESNAFEKAFSSDPAPLGLAGFAFTTFLLSFINAGLIPASGVNVVVPLAIAYGGLAQLITGSWEMRRGNNFGFTAFTSYGSFWIFYALMVILADLHIINALPAVAVGWALILWGIFTLYMWGGAMMASMSLNLTFLFLWLTFVVLGLGAIYSSVALTHAGGYLGILSAFFAAYTSFAIIINSMKPGTIPVGPGMFHKKAGK,failed
11,MKLFKELEETKEQVIKMAKLVQEAIDKATEALNKQNVELAEEVIKGDDTIDLLEVDIERRCIRMIALYQPEAGDLRMIMGIYKIVSDLERMGDEAENIAERAILLAEEPPLKPYVNINFMSEIVKEMVNDSVISFIQQDTLLAKKVIEKDDTVDELYHQLERELMTYVLEDPRNIKRAMHLSFVARHYERIADHAENVAEAAIYLSEGEIVKHQHIKEKGE,not failed
12,MKLFSSGRKTPTSSPASSHAGAMDETVGVTSTSEAANVATQPVPTPVEDVPNGVRTAAGWCWRMIVIAAFIYGLYQVLHAASEVSVPVAVALMLTAAMWPLANWLSRHHIHRGIASGICLLLLVILVGGVFTLVGAQIALQWRQLGDQSVASFKQALQWLAKSPLHTNEAQLTHLMQKAEAAMAGSQGRIASTAAAAGSQIGRFGAGLVMALFATFFFVYEGDKLAEKSAVLIPREHRAAILDAAKRGWVALVAYVRAAVIVAFVDGLGAGIGAAIIGSSMSVAIGALTFILAFVPIVGALTAGVVAVGVVLVTLGFFKAFIMLIVFVAVMQIEGHVLQPFLLGKAVSIHPLIVLLGIAVGAIISGIVGALFAIPIVAFGVAFIKALNPETPANEVPPNHDDLAAEHT,failed
13,MKLIKNGKVLQNGELQQADILIDGKVIKQIAPAIEPSNGVDIIDAKGHFVSPGFVDVHVHLREPGGEYKETIETGTKAAARGGFTTVCPMPNTRPVPDSVEHFEALQKLIDDNAQVRVLPYASITTRQLGKELVDFPALVKEGAFAFTDDGVGVQTASMMYEGMIEAAKVNKAIVAHCEDNSLIYGGAMHEGKRSKELGIPGIPNICESVQIARDVLLAEAAGCHYHVCHVSTKESVRVIRDAKRAGIHVTAEVTPHHLLLTEDDIPGNNAIYKMNPPLRSTEDREALLEGLLDGTIDCIATDHAPHARDEKAQPMEKAPFGIVGSETAFPLLYTHFVKNGDWTLQQLVDYLTIKPCETFNLEYGTLKENGYADLTIIDLDSEQEIKGEDFLSKADNTPFIGYKVYGNPILTMVEGEVKFEGDK,failed
14,MKLIKVILSSISQVVLINNPYTGLFILIGLFAVNWKVGISAMIASVMTWILAPYMNYTKEEIESGLAGFNPVLTAIALTLFLDSNWSGILITFVATILTLPIGAAVREVLKPHKIAFLTSPYVIMTWITLLIPNQLKTLHTQIDIIPEHIEKVSLNNDHTRVHFFQSVLDGFGQIFLMPSIIGGLLILIGIFIGSKKAGIVSIIANIIGFLIIILLGGDYSSINEGIFGYNVVLSAIALGVTFETAIHSYLAMILGIVLTAFIHLGLSTLLAPLGLPTLTWPFIFATWIMLFAGIKNQSV,failed
15,MKLKEVTEGKVRIFVPDPTGYMVEGKFDPSWAPVFYNPKMTFNRDLSVIVVSILKPKIIVDALSATGIRGIRYYVESWKSEQLILNDKNPNATSLIQINAKNNGIENAKIYNKDANALLYEVKSDYIDIDPFGSPAPFILSSLNAATRNGIVAFTATDLSPLEGSSPTSCRRKYDAINHKLSSSKELGLRVLIGKIIREAAILEKTVYPLFSFYADYYYRLFVRVENGARKADDNINKHLKYFGECPRCGFQTFVEENCKTKCPVCGEIFSIIGPLYIGPLYSMEFLKRIMDLYSNFNYLTSFNRIQKLLNVIEKEARFKNVFYNISKLASKLKISAIPPIESILECLGDASRTHFAPTGIRTDKEYEEITKCIKSLR,failed
16,MKLKGKGIGKVVVEGEVIVSRKPLSFLGGVDPETGTITDPESDIKGESITGKILVFPKGKGSTVGSYILYALSKNGKGPKAIIVEEAEPIVTAGAIISGIPLITNVDISKLKTGMRVRINPQEGEVEILAEGNLLEHHHHHH,failed
17,MKLKSYILVGYIISTLLTILVVFWAVQKMLIAKGEIYFLLGMTIVASLVGAGISLFLLLPVFTSLGKLKEHAKRVAAKDFPSNLEVQGPVEFQQLGQTFNEMSHDLQVSFDSLEESEREKGLMIAQLSHDIKTPITSIQATVEGILDGIIKESEQAHYLATIGRQTERLNKLVEELNFLTLNTARNQVETTSKDSIFLDKLLIECMSEFQFLIEQERRDVHLQVIPESARIEGDYAKLSRILVNLVDNAFKYSAPGTKLEVVAKLEKDQLSISVTDEGQGIAPEDLENIFKRLYRVETSRNMKTGGHGLGLAIARELAHQLGGEITVSSQYGLGSTFTLVLNLSGSENKA,failed
